Square brackets hold non-standard residues; d marks the D form. Ends that are not written are not given here. Aib = CC(C)(N)C(=O)O
T1: human glucose-dependent insulinotropic peptide receptor (human, UniProt P48546)
T1 sequence: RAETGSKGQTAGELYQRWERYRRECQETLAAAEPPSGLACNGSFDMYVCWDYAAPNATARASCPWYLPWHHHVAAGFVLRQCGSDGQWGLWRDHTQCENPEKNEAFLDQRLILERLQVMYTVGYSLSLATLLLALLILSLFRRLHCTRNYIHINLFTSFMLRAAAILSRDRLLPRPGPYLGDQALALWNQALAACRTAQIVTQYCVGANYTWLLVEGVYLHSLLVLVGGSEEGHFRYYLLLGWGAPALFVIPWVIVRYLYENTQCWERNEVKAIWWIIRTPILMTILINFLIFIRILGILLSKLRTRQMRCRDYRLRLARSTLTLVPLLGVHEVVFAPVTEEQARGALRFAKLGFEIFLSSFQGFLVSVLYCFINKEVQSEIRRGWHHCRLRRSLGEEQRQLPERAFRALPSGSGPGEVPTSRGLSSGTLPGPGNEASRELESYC

B1: Compound No. 4 (peptide)
peptide: Y[Aib]EGTFTSDVSSYLEEIHQKEFIAWLVRGGPSSGAPPPSK-NH2
modifications: N-terminus assumed
SMILES: CC[C@H](C)[C@H](NC(=O)[C@H](Cc1ccccc1)NC(=O)[C@H](CCC(=O)O)NC(=O)[C@H](CCCCN)NC(=O)[C@H](CCC(N)=O)NC(=O)[C@H](Cc1c[nH]cn1)NC(=O)[C@@H](NC(=O)[C@H](CCC(=O)O)NC(=O)[C@H](CCC(=O)O)NC(=O)[C@H](CC(C)C)NC(=O)[C@H](Cc1ccc(O)cc1)NC(=O)[C@H](CO)NC(=O)[C@H](CO)NC(=O)[C@@H](NC(=O)[C@H](CC(=O)O)NC(=O)[C@H](CO)NC(=O)[C@@H](NC(=O)[C@H](Cc1ccccc1)NC(=O)[C@@H](NC(=O)CNC(=O)[C@H](CCC(=O)O)NC(=O)C(C)(C)NC(=O)[C@@H](N)Cc1ccc(O)cc1)[C@@H](C)O)[C@@H](C)O)C(C)C)[C@@H](C)CC)C(=O)N[C@@H](C)C(=O)N[C@@H](Cc1c[nH]c2ccccc12)C(=O)N[C@@H](CC(C)C)C(=O)N[C@H](C(=O)N[C@@H](CCCNC(=N)N)C(=O)NCC(=O)NCC(=O)N1CCC[C@H]1C(=O)N[C@@H](CO)C(=O)N[C@@H](CO)C(=O)NCC(=O)N[C@@H](C)C(=O)N1CCC[C@H]1C(=O)N1CCC[C@H]1C(=O)N1CCC[C@H]1C(=O)N[C@@H](CO)C(=O)N[C@@H](CCCCN)C(N)=O)C(C)C
B2: Compound No. 5 (peptide)
peptide: H[Aib]EGTFTSDVSSYLEEEAAKEFVNWLLAGGPSSGAPPPSK-NH2
modifications: N-terminus assumed
SMILES: CC(C)C[C@H](NC(=O)[C@H](CC(C)C)NC(=O)[C@H](Cc1c[nH]c2ccccc12)NC(=O)[C@H](CC(N)=O)NC(=O)[C@@H](NC(=O)[C@H](Cc1ccccc1)NC(=O)[C@H](CCC(=O)O)NC(=O)[C@H](CCCCN)NC(=O)[C@H](C)NC(=O)[C@H](C)NC(=O)[C@H](CCC(=O)O)NC(=O)[C@H](CCC(=O)O)NC(=O)[C@H](CCC(=O)O)NC(=O)[C@H](CC(C)C)NC(=O)[C@H](Cc1ccc(O)cc1)NC(=O)[C@H](CO)NC(=O)[C@H](CO)NC(=O)[C@@H](NC(=O)[C@H](CC(=O)O)NC(=O)[C@H](CO)NC(=O)[C@@H](NC(=O)[C@H](Cc1ccccc1)NC(=O)[C@@H](NC(=O)CNC(=O)[C@H](CCC(=O)O)NC(=O)C(C)(C)NC(=O)[C@@H](N)Cc1c[nH]cn1)[C@@H](C)O)[C@@H](C)O)C(C)C)C(C)C)C(=O)N[C@@H](C)C(=O)NCC(=O)NCC(=O)N1CCC[C@H]1C(=O)N[C@@H](CO)C(=O)N[C@@H](CO)C(=O)NCC(=O)N[C@@H](C)C(=O)N1CCC[C@H]1C(=O)N1CCC[C@H]1C(=O)N1CCC[C@H]1C(=O)N[C@@H](CO)C(=O)N[C@@H](CCCCN)C(N)=O
B3: Compound No. 6 (peptide)
peptide: Y[Aib]EGTFTSDVSSYLEEEAAKEFVNWLLAGGPSSGAPPPSK-NH2
modifications: N-terminus assumed
SMILES: CC(C)C[C@H](NC(=O)[C@H](CC(C)C)NC(=O)[C@H](Cc1c[nH]c2ccccc12)NC(=O)[C@H](CC(N)=O)NC(=O)[C@@H](NC(=O)[C@H](Cc1ccccc1)NC(=O)[C@H](CCC(=O)O)NC(=O)[C@H](CCCCN)NC(=O)[C@H](C)NC(=O)[C@H](C)NC(=O)[C@H](CCC(=O)O)NC(=O)[C@H](CCC(=O)O)NC(=O)[C@H](CCC(=O)O)NC(=O)[C@H](CC(C)C)NC(=O)[C@H](Cc1ccc(O)cc1)NC(=O)[C@H](CO)NC(=O)[C@H](CO)NC(=O)[C@@H](NC(=O)[C@H](CC(=O)O)NC(=O)[C@H](CO)NC(=O)[C@@H](NC(=O)[C@H](Cc1ccccc1)NC(=O)[C@@H](NC(=O)CNC(=O)[C@H](CCC(=O)O)NC(=O)C(C)(C)NC(=O)[C@@H](N)Cc1ccc(O)cc1)[C@@H](C)O)[C@@H](C)O)C(C)C)C(C)C)C(=O)N[C@@H](C)C(=O)NCC(=O)NCC(=O)N1CCC[C@H]1C(=O)N[C@@H](CO)C(=O)N[C@@H](CO)C(=O)NCC(=O)N[C@@H](C)C(=O)N1CCC[C@H]1C(=O)N1CCC[C@H]1C(=O)N1CCC[C@H]1C(=O)N[C@@H](CO)C(=O)N[C@@H](CCCCN)C(N)=O
B4: Compound No. 8 (peptide)
peptide: Y[Aib]EGTFTSDVSIYLEKEAAEEFVNWLLAGGPSSGAPPPSK-NH2
modifications: N-terminus assumed
SMILES: CC[C@H](C)[C@H](NC(=O)[C@H](CO)NC(=O)[C@@H](NC(=O)[C@H](CC(=O)O)NC(=O)[C@H](CO)NC(=O)[C@@H](NC(=O)[C@H](Cc1ccccc1)NC(=O)[C@@H](NC(=O)CNC(=O)[C@H](CCC(=O)O)NC(=O)C(C)(C)NC(=O)[C@@H](N)Cc1ccc(O)cc1)[C@@H](C)O)[C@@H](C)O)C(C)C)C(=O)N[C@@H](Cc1ccc(O)cc1)C(=O)N[C@@H](CC(C)C)C(=O)N[C@@H](CCC(=O)O)C(=O)N[C@@H](CCCCN)C(=O)N[C@@H](CCC(=O)O)C(=O)N[C@@H](C)C(=O)N[C@@H](C)C(=O)N[C@@H](CCC(=O)O)C(=O)N[C@@H](CCC(=O)O)C(=O)N[C@@H](Cc1ccccc1)C(=O)N[C@H](C(=O)N[C@@H](CC(N)=O)C(=O)N[C@@H](Cc1c[nH]c2ccccc12)C(=O)N[C@@H](CC(C)C)C(=O)N[C@@H](CC(C)C)C(=O)N[C@@H](C)C(=O)NCC(=O)NCC(=O)N1CCC[C@H]1C(=O)N[C@@H](CO)C(=O)N[C@@H](CO)C(=O)NCC(=O)N[C@@H](C)C(=O)N1CCC[C@H]1C(=O)N1CCC[C@H]1C(=O)N1CCC[C@H]1C(=O)N[C@@H](CO)C(=O)N[C@@H](CCCCN)C(N)=O)C(C)C
B5: Compound No. 9 (peptide)
peptide: Y[Aib]EGTFTSDYSIYLEKEAAKEFVNWLLAGGPSSGAPPPSK-NH2
modifications: N-terminus assumed
SMILES: CC[C@H](C)[C@H](NC(=O)[C@H](CO)NC(=O)[C@H](Cc1ccc(O)cc1)NC(=O)[C@H](CC(=O)O)NC(=O)[C@H](CO)NC(=O)[C@@H](NC(=O)[C@H](Cc1ccccc1)NC(=O)[C@@H](NC(=O)CNC(=O)[C@H](CCC(=O)O)NC(=O)C(C)(C)NC(=O)[C@@H](N)Cc1ccc(O)cc1)[C@@H](C)O)[C@@H](C)O)C(=O)N[C@@H](Cc1ccc(O)cc1)C(=O)N[C@@H](CC(C)C)C(=O)N[C@@H](CCC(=O)O)C(=O)N[C@@H](CCCCN)C(=O)N[C@@H](CCC(=O)O)C(=O)N[C@@H](C)C(=O)N[C@@H](C)C(=O)N[C@@H](CCCCN)C(=O)N[C@@H](CCC(=O)O)C(=O)N[C@@H](Cc1ccccc1)C(=O)N[C@H](C(=O)N[C@@H](CC(N)=O)C(=O)N[C@@H](Cc1c[nH]c2ccccc12)C(=O)N[C@@H](CC(C)C)C(=O)N[C@@H](CC(C)C)C(=O)N[C@@H](C)C(=O)NCC(=O)NCC(=O)N1CCC[C@H]1C(=O)N[C@@H](CO)C(=O)N[C@@H](CO)C(=O)NCC(=O)N[C@@H](C)C(=O)N1CCC[C@H]1C(=O)N1CCC[C@H]1C(=O)N1CCC[C@H]1C(=O)N[C@@H](CO)C(=O)N[C@@H](CCCCN)C(N)=O)C(C)C
B6: Compound No. 10 (peptide)
peptide: Y[Aib]EGTFTSDYSIYLEKEAAQEFVNWLLAGGPSSGAPPPSK-NH2
modifications: N-terminus assumed
SMILES: CC[C@H](C)[C@H](NC(=O)[C@H](CO)NC(=O)[C@H](Cc1ccc(O)cc1)NC(=O)[C@H](CC(=O)O)NC(=O)[C@H](CO)NC(=O)[C@@H](NC(=O)[C@H](Cc1ccccc1)NC(=O)[C@@H](NC(=O)CNC(=O)[C@H](CCC(=O)O)NC(=O)C(C)(C)NC(=O)[C@@H](N)Cc1ccc(O)cc1)[C@@H](C)O)[C@@H](C)O)C(=O)N[C@@H](Cc1ccc(O)cc1)C(=O)N[C@@H](CC(C)C)C(=O)N[C@@H](CCC(=O)O)C(=O)N[C@@H](CCCCN)C(=O)N[C@@H](CCC(=O)O)C(=O)N[C@@H](C)C(=O)N[C@@H](C)C(=O)N[C@@H](CCC(N)=O)C(=O)N[C@@H](CCC(=O)O)C(=O)N[C@@H](Cc1ccccc1)C(=O)N[C@H](C(=O)N[C@@H](CC(N)=O)C(=O)N[C@@H](Cc1c[nH]c2ccccc12)C(=O)N[C@@H](CC(C)C)C(=O)N[C@@H](CC(C)C)C(=O)N[C@@H](C)C(=O)NCC(=O)NCC(=O)N1CCC[C@H]1C(=O)N[C@@H](CO)C(=O)N[C@@H](CO)C(=O)NCC(=O)N[C@@H](C)C(=O)N1CCC[C@H]1C(=O)N1CCC[C@H]1C(=O)N1CCC[C@H]1C(=O)N[C@@H](CO)C(=O)N[C@@H](CCCCN)C(N)=O)C(C)C

biological target: human glucagon-like peptide-1 receptor (human, UniProt P43220); assay: cell-based or functional assay

| Binder | Activity for human GLP-1R (EC50 nM), cAMP HTRF |
| --- | --- |
| B1 | 0.43 nM |
| B2 | 0.004 nM |
| B3 | 0.128 nM |
| B4 | 0.07 nM |
| B5 | 0.011 nM |
| B6 | 0.097 nM |

biological target: T1, human glucose-dependent insulinotropic …; assay: cell-based or functional assay

| Binder | Activity for human GIPR (EC50 nM), cAMP HTRF |
| --- | --- |
| B1 | > 10 nM |
| B2 | > 10 nM |
| B3 | 2.1 nM |
| B4 | 0.12 nM |
| B5 | 0.018 nM |
| B6 | 0.006 nM |
